Measurements from patent US20030129189A1, “Tumor necrosis factor-gamma” (priority 1994, published 2003).

Columns and labels:
[1] = test system: TNF-gamma on the cell surface; assay: FACS analysis of receptor-ligand binding on cells
Procedure: Consistent with the Northern blot analysis, peripheral blood mononuclear cells (PBMC) and human umbilical vein endothelial cells (HUVEC) express TNF-gamma on the cell surface by immunostaining with antibody to TNF-gamma. [Cells were collected by trypsinization or aspiration, and centrifuged at 1500-2000 rpm for 5 min. The cell pellets were resuspended and washed in 5 ml ice-cold PBS twice. The cells were incubated for 30 min at […] with antibody (10 mg/ml ) to TNF-gamma to detected expression of TNF-gamma on cell surface, with DR3-Fc or LTbR-Fc (10 mg/ml) for receptor and ligand binding in the binding buffer (HBSS containing 10% BSA, 20 mM HEPES, pH 7.2, 0.02% NaN3). […] Fluorescence was analyzed by a FACscan flow cytometer (Becton Dickinson, Mountain View, Calif.).] […] After incubation at 37° C. for 72 hr, the NF-kB activity was measured with luminometer at absorbance of 450 nm.]
Cells were collected by trypsinization or aspiration, and centrifuged at 1500-2000 rpm for 5 min. […] The cells were incubated for 30 min at 40° C. with antibody (10 mg/ml ) to TNF-gamma to detected expression of TNF-gamma on cell surface, with DR3-Fc or LTbR-Fc (10 mg/ml) for receptor and ligand binding in the binding buffer (HBSS containing 10% BSA, 20 mM HEPES, pH 7.2, 0.02% NaN3). […] Fluorescence was analyzed by a FACscan flow cytometer (Becton Dickinson, Mountain View, Calif.).

TNF-gamma-beta [2] = molecular target: T1, TNF-gamma-beta (Homo sapiens, UniProt O95150); assay: Inhibition of TNF-gamma-beta induced caspase activation in TF-1 cells; assay type: cell-based; details: presence of cycloheximide
T1 construct: made in house; host or cells: E. coli (untagged) or 293T (FLAG-tagged)
T1 sequence (O95150 72-251): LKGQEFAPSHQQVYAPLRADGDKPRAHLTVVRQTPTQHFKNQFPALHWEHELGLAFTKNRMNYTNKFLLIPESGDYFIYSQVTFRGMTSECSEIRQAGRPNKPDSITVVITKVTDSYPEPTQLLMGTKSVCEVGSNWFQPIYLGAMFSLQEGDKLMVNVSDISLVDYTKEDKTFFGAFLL
Procedure: Briefly, cells growing in microtiter plates are induced to undergo apoptosis, causing an activation of caspase activities. Equal volume of a caspase substrate (Asp-Glu-Val-Asp-Rhodamine 110, or DEVD-R110) solution is then added and incubated for at least 1 hour. During this incubation, cells are being lysed and free R110 is released from the substrate. The level of free R110 is determined fluorimetrically, using a fluorescence reader with excitation filter 470-500 nm and emission filter 500-560 nm.
A black 96-well plate with a clear bottom is seeded with 75,000 TF-1 cells in RPMI containing 1% fetal bovine serum and micrograms/milliliter cyclohexamide. […] Following the manufacturer's directions, an equal volume of 1×substrate solution containing 50 micromolar DEVD-R110 diluted in incubation buffer is added to each well. The 96-well plates are then incubated for 2 hours after which the plate is read in a fluorescence reader with an excitation filter at 485 nm and an emission filter at 535 nm.
These solutions were then incubated for 1 hour at room temperature.
The reagents were incubated for 1 hour at RT to allow the formation of protein-TNF-gamma-beta complexes and then added to the cells. Caspase activity was measured as described above.

TNF-gamma-beta [3] = molecular target: T1, TNF-gamma-beta; assay: Inhibition of TNF-gamma-beta activation of NF-κB in 293T cells; assay type: cell-based
Procedure: To avoid spontaneous apoptosis or NF-κB activation accompanied with DR3 overexpression, a limited amount of DR3-expression DNA that by itself minimally activated these pathways was used.
293T cells were transiently transfected using LipofectAMINE and PLUS reagents according to the manufacturer's instruction (Invitrogen). For reporter assays, 293T cells, at 5×10^5 cells/well, were seeded in 6-well plates and transfected with a total of 1 microgram of DNA. pC4 DNA was used as filler DNA. Conditioned supernatant was collected 24 hr post-transfection and assayed for secreted alkaline phosphatase (SEAP) activity using the Phospha-Light™ chemiluminescent reporter gene assay system (Tropix). pCMV-lacZ was used as internal control for transfection efficiency normalization.

TNF-gamma-beta [4] = molecular target: T2, TNF-gamma-beta (Homo sapiens, UniProt O95150); assay: Coimmunoprecipitation of TNF-gamma-beta by TNFR-Fc proteins; assay type: binding
T2 construct: made in house; host or cells: 293T cells, transient transfection
T2 sequence (O95150 72-251 limits assumed): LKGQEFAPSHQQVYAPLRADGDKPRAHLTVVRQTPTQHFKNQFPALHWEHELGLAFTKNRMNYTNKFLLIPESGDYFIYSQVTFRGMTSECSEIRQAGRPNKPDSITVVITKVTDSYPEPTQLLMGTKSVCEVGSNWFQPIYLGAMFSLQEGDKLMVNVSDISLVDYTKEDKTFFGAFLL
Text: The beads were then precipitated and washed extensively with PBST buffer (PBS, 0.5% Triton X-100) before boiled in SDS-sample buffer. Proteins were resolved on 4-20% Tris-Glycine gels (NOVEX), transferred to nitrocellulose membranes, and blotted with anti-Flag M2 monoclonal antibody (1 microgram/ml, Sigma) andhorseradish peroxidase (HRP)-conjugated goat anti-mouse IgG antibody (0.5 microgram/ml).

TNF-gamma-beta [5] = molecular target: T3, TNF-gamma-beta (Homo sapiens, UniProt O95150); assay: FACS binding of receptor-Fc proteins to cells expressing full length TNF-gamma-beta
T3 construct: expressed in transfected cells
T3 sequence (O95150 1-251): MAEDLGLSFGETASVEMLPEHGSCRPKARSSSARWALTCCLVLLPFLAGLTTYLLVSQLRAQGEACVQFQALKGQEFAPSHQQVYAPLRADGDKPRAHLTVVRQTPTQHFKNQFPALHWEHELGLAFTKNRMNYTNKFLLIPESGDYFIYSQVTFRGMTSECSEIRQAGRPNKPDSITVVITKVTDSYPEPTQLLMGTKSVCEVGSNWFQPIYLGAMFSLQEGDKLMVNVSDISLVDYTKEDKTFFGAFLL
Procedure: These cells were used to screen the Fc-fusion form of the extracellular domain of TNFR family members, including TNFR1, Fas, HveA, DR3, DR4, DR5, DR6, DcR1, DcR2, TR6, OPG, RANK, AITR, TAC1, CD40, and OX40. […] TR6 has been previously described as a decoy receptor (Pitti et al., Nature 396:699-703 (1998); Yu et al., J. Biol. Chem. 274:13733-6 (1999)) capable of competing with Fas and HveA for binding of FasL and LIGHT, respectively.
Cells resistant to 0.5 mg/ml Genticin (Invitrogen) were selected and expanded. Expression of TNF-gamma-beta mRNA was confirmed by quantitative RT-PCR analysis and surface expression of TNF-gamma-beta protein confirmed by FACS analyses using TNF-gamma-beta monoclonal antibodies.
One million cells, in 0.1 ml of FACS buffer (PBS, 0.1% BSA, 0.1% NaN3), were incubated with 0.1-1 microgram of protein or antibody at RT for 15 min. The cells were washed with 3 ml of FACS buffer, reacted with biotinylated primary antibody, and stained with PE-conjugated secondary antibody at RT for 15 min. Cells were then washed again, resuspended in 0.5 microgram/ml of propidium iodide, and live cells were gated and analyzed on a FACScan using the CellQuest software (BD Biosciences).

TNF-gamma-beta [6] = molecular target: T1, TNF-gamma-beta; assay: Inhibition of TNF-gamma-beta-mediated IFNγ secretion from T cells; assay type: cell-based; details: costimulated T cells
Procedure: The extent of the increase in IL-2 receptor expression is consistent with the moderate increase in IL-2 responsiveness compared with IL-2 itself.
1×10^5 cells/ml of purified T cells were seeded in a 24-well tissue culture plate that had been coated with anti-CD3 (0.3 microgram/ml) and anti-CD28 (5.0 microgram/ml) overnight at 4° C. […] ELISA assay for IFNγ, GM-CSF, IL-2 IL-4, IL-10 and TNFα were performed using kits purchased from R & D Systems. Recombinant human IL-2 (5 ng/ml) was used as a positive control. All samples were tested in duplicate and results were expressed as an average of duplicate samples plus or minus error.

TNF-gamma-beta [7] = molecular target: T2, TNF-gamma-beta; assay: Neutralization of TNF-gamma-beta induced SEAP production in TF-1/SRE reporter cells; assay type: cell-based; details: TNF-gamma-beta at 200 ng/mL, TF1/SRE reporter cells
Procedure: Briefly, a poly-D-lysine coated 96-well plate is seeded with TF-1/SRE-SEAP cells (in RPMI+0.2% Fetal bovine serum) at 75,000 cells per well. […] Again cells were incubated overnight. After overnight incubation, conditioned media were collected and SEAP activity was determined using the SEAP Reporter Gene Assay available from Roche Molecular Biochemicals (Indianapolis, Ind.) according to the manufacturer's directions. Briefly, Conditioned media were diluted 1:4 into dilution buffer. Samples were incubated at 65C for 30 minutes to eliminate contaminating AP activity usually present in culture medium. 25 microliters of the heat-inactivated samples were mixed with equal volume of inactivation buffer (containing a mixture of differential alkaline phosphatase inhibitors). Following a 5-minute incubation at room temperature, 50 uL of alkaline phosphatase substrate (CSPD) was added to each well. Chemiluminescence signal was read 10-15 minutes later using a luminometer.
These solutions were then incubated for 1 hour at room temperature. […] After the overnight incubation, the SEAP assay was performed as described above.
The premyeloid cell line TF-1 was stably transfected with SRE/SEAP (Signal Response Element/Secreted Alkaline Phosphatase) reporter plasmid that responds to the SRE signal transduction pathway.

[8] = test system: adult bovine aortic endothelial (ABAE) cells; assay: In vitro angiogenesis assay (capillary-like tubes on collagen gels); assay type: cell-based; details: control
WEHI 164 cells = assay: Measurement of apoptosis (nucleosome ELISA); assay type: cell-based, mouse; details: increasing amounts (FIG. 12)
Procedure: In a first incubation step, anti-histone antibody was fixed adsorptively on the wall of a microtiter plate module. Subsequently, non-specific binding sites on the wall were saturated by treatment with incubation buffer (e.g., blocking solution). During the second incubation step, the nucleosomes contained in the WEHI 164 cell sample treated with the TNF-alpha, TNF-beta or bacterially-produced TNF-gamma were bound via their histone components to the immobilized anti-histone antibody. In the third incubation step, anti-DNA-peroxidase (POD) reacted with the DNA component of the nucleosomes. After removal of all unbound peroxidase conjugate by a washing step, the amount of peroxidase retained in the immunocomplex was determined spectrophotometrically using the substrate ABTS (2,2′-azino-di-[3-ethylbenzthiazoline sulfonate]). Anti-histone antibody reacted with the histones H1, H2A, H2B, H3, and H4 from the sample. Anti-DNA POD antibody bound to single- and double-stranded DNA. Therefore, the ELISA allowed the detection of mono- and oligonucleosomes and may be applied to measure apoptotic cell death. The level of cell death was measured by the amount of cytoplasmic histone-associated DNA fragments which was indicated by the ratio of the absorbances observed at 405 and 490 nm (A405/A490). […]

DR3-Fc: recombinant receptor DR3-Fc fusion protein (Fc-extracellular domain of DR3) [reference compound]
binding to HUVEC cells and PBMC ([1]; FACS): also binds to HUVEC cells and PBMC
binding to TNF-gamma-transfected tumor cells (FACS shift) ([1]; MC-38/TNF-gamma cells): indicating cell-surface binding between TNF-gamma and DR3
inhibition of TNF-gamma-beta induced caspase activation (TNF-gamma-beta [2]): inhibited by either DR3-Fc or TR6-Fc protein
inhibition of TNF-gamma-beta activation of NF-κB (TNF-gamma-beta [3]): specifically inhibited
immunoprecipitation of TNF-gamma-beta (TNF-gamma-beta [4]): specifically interacted with FLAG-TNF-gamma-beta
binding to cells expressing TNF-gamma-beta (FACS) (TNF-gamma-beta [5]): bound efficiently
inhibition of TNF-gamma-beta-mediated IFNγ secretion (TNF-gamma-beta [6]): able to inhibit

DR3.Fc: extracellular domain of human DR3 (aa 1-199) fused to the Fc domain of human IgG1
neutralization of TNF-gamma-beta SEAP activity by receptor-Fc (TNF-gamma-beta [7]): interacts with TNF-gamma-beta
inhibition of TNF-gamma-beta activation of NF-κB (TNF-gamma-beta [3]): able to inhibit
immunoprecipitation of TNF-gamma-beta (TNF-gamma-beta [4]): can be used to immunoprecipitate TNF-gamma-beta

FGF-2: angiogenic factor FGF-2
EC50 value to stimulate in vitro angiogenesis [8]: about 5 ng/ml
concentration of maximum stimulatory effect on in vitro angiogenesis [8]: 10 ng/mL

B1: TNF-beta: tumor necrosis factor beta (lymphotoxin), control cytokine (protein, UniProt P01374 35-205, looked up)
Lymphotoxin-alpha: LPGVGLTPSAAQTARQHPKMHLAHSTLKPAAHLIGDPSKQNSLLWRANTDRAFLQDGFSLSNNSLLVPTSGIYFVYSQVVFSGKAYSPKATSSPLYLAHEVQLFSSQYPFHVPLLSSQKMVYPGLQEPWLHSMYHGAAFQLTQGDQLSTHTDGIPHLVLSPSTVFFGAFAL
apoptosis (cytoplasmic histone-associated DNA fragments, A405/A490) (WEHI 164 cells): also observed in the presence of increasing amounts
